In US20220275390A1, “RUBISCO-BINDING PROTEIN MOTIFS AND USES THEREOF” (The Trustees of Princeton University, priority 2019, published 2022):

Assays:
EPYC1 = assay: Yeast two-hybrid assay of EPYC1 with Rubisco SSU variants; format: cell-based, Chlamydomonas reinhardtii; details: growth on SD-L-W-H with 3-AT, three days, FIGS. 9A-9C
Text: FIGS. 9A-9C show the results of a yeast two-hybrid (Y2H) assay to measure the interaction between EPYC1 and Rubisco SSU variants. […] The images shown were taken following three days of cell growth. The Rubisco SSU residues that form salt bridges with EPYC1 residues are bolded (D23, E24, and R91) and the residues that form the hydrophobic pocket with EPYC1 residues are bolded and italicized (M87 and V94). The “Control” images were taken from cells grown for three days on SD-L-W media and the “Test” images were taken from cells grown for three days on SD-L-W-H with 3-AT. Growth of yeast cells expressing the indicated EPYC1 and Rubisco SSU variants was measured after three days on SD-L-W-H with varying 3-AT concentrations. The highest concentration of 3-AT (0, 1, 2.5, 5, 10, and 20 mM) permissive for the growth of each EPYC1 and Rubisco SSU variant combination is shown, as indicated in the “Key” on the right.
Mutagenesis of EPYC1, Mutagenesis of Rubisco, Yeast Two-hybrid, Peptide Arrays and SPR Assays To determine the importance of individual EPYC1 residues for binding to Rubisco, the impact on Rubisco binding of every possible single amino acid substitution for EPYC1 RBM 2 was determined (FIG. 8). To determine the importance of individual Rubisco residues for binding to EPYC1, targeted mutations of the amino acids identified from atomic modeling were tested in a yeast two-hybrid assay as in van Nues and Beggs (Genetics 157: 1451-1467, 2000). Peptide arrays and SPR assays were performed as in Example 1.

C. reinhardtii cells = assay: Confocal fluorescence microscopy localization of Venus fusion proteins; format: cell-based, Chlamydomonas reinhardtii; details: Venus fluorescence in C. reinhardtii cells
Text: A synthetic […] (Invitrogen) containing a 643 bp restriction fragment containing the C-terminus of Venus, followed by the sequence coding for the FLAG-tag sequence, and a sequence coding for three repetitions of the 15 C-terminal amino acids of SAGA2, was cloned into pLM005-FDX1, after restriction digestion with EcoRl and PfIMI. GenBank accession number of the empty pLM005 is KX077945.1. The plasmid pLM005-FDX1 is identical to pLM005 with the genomic sequence of FDX1 cloned in frame by Gibson Assembly (Mackinder et al., PNAS 113: 5958-5963, 2015) between residues 2698 and 3234. The terminal 85 amino acids of resultant mature fusion protein, immediately downstream of the FLAG-tag, were a 5 aa linker (GGGGS; SEQ ID NO: 87), a first copy of SAGA2 15 C-terminal aa, followed by a 10 aa linker (2X GGGGS; SEQ ID NO: 88), a second copy of SAGA2 15 last aa, another 10 aa linker (2X GGGGS; SEQ ID NO: 88), and finally a third copy of SAGA2 15 last aa. The sequence of the EcoRI-PfIMI digestion fragment (SEQ ID NO: 89) was cloned in frame into pLM005-FDX1.
Culturing and Transformation of C. reinhardtii: Culturing and transformation of C. reinhardtii for fluorescence localization of protein and imaging was performed as described in Mackinder et al. (PNAS 113: 5958-5963, 2015). […]

Row | Molecule | Rubisco SSU-EPYC1 interaction (EPYC1) | localization pattern within the pyrenoid (C. reinhardtii cells; FIG. 15) | localization (C. reinhardtii cells; FIGS. 14B and 15)
1 | D23A: C. reinhardtii Rubisco SSU with mutation D23A (protein, left off: small tags and cut ends) MMVWTPVNNKMFETFSYLPPLTAEQIAAQVDYIVANGWIPCLEFAEADKAYVSNESAIRFGSVSCLYYDNRYWTMWKLPMFGCRDPMQVLREIVACTKAFPDAYVRLVAFDNQKQVQIMGFLVQRPKTARDFQPANKRSV | severe impact | – | –
2 | R91A: C. reinhardtii Rubisco SSU with mutation R91A (protein, UniProt P00873 46-185, looked up, variant R91A) Ribulose bisphosphate …: MMVWTPVNNKMFETFSYLPPLTDEQIAAQVDYIVANGWIPCLEFAEADKAYVSNESAIRFGSVSCLYYDNRYWTMWKLPMFGCRDPMQVLAEIVACTKAFPDAYVRLVAFDNQKQVQIMGFLVQRPKTARDFQPANKRSV | moderate defect | – | –
3 | E24A: C. reinhardtii Rubisco SSU with mutation E24A (protein, UniProt P00873 46-185, looked up, variant E24A) Ribulose bisphosphate …: MMVWTPVNNKMFETFSYLPPLTDAQIAAQVDYIVANGWIPCLEFAEADKAYVSNESAIRFGSVSCLYYDNRYWTMWKLPMFGCRDPMQVLREIVACTKAFPDAYVRLVAFDNQKQVQIMGFLVQRPKTARDFQPANKRSV | moderate defect | – | –
4 | M87D: C. reinhardtii Rubisco SSU with mutation M87D (protein, UniProt P00873 46-185, looked up, variant M87D) Ribulose bisphosphate …: MMVWTPVNNKMFETFSYLPPLTDEQIAAQVDYIVANGWIPCLEFAEADKAYVSNESAIRFGSVSCLYYDNRYWTMWKLPMFGCRDPDQVLREIVACTKAFPDAYVRLVAFDNQKQVQIMGFLVQRPKTARDFQPANKRSV | severe impact | – | –
5 | V94D: C. reinhardtii Rubisco SSU with mutation V94D (protein, UniProt P00873 46-185, looked up, variant V94D) Ribulose bisphosphate …: MMVWTPVNNKMFETFSYLPPLTDEQIAAQVDYIVANGWIPCLEFAEADKAYVSNESAIRFGSVSCLYYDNRYWTMWKLPMFGCRDPMQVLREIDACTKAFPDAYVRLVAFDNQKQVQIMGFLVQRPKTARDFQPANKRSV | severe impact | – | –
6 | RBM P1-Venus: Rubisco-Binding Membrane Protein 1 (SEQ ID NO: 1) fused to the Venus fluorescent protein (protein) MQCQLKHGARPQSQRPNWLPARAATLRPAVQHGVRRGLTLGVKAAAAPLEDKKMPADMTTRQYRRVVYDFALWAKHRDVNRYLYNLRTIPGSRIIRQLSQPMGVVLAWAALFGFYETCLEAGVLPSYLPKMTLMSAEPQGLTSFALSLLLVFRTNSSYGRFDEARKIWGGILNRARNIANQAVTFIPAEDQAGREAVGKWTVGFTRALQAHLQEDIDLRKELEKATPRWSKEEIDMLVNAQHRPIKAISVLSELTRQLSITQFQALQMQENCTFFYDALGGCERLLRTPIPVSYTRHTARFLTIWLAMLPLGLWERYHWSMLPVIALIGFLLLGIDEIGISIEEPFGILPLDAICGRAQTDVNSLLKEDPAVMKYVDDVRSGRVKSPPPLPPAPAAPAAAAAAAAAAARSVSPQPDVAKTLGSLFTNVRAGVGAVAPGAPLMPQAPVRSPSPTRSVSPSFPRASAGTGMPPPVGMNGATPRVAAAPPTPPPVSRPAAPAAAPAAGSGFTMPNFSASLSGLTGGAAAAAKSAADAASSKLTKMADSMSSGAAAPAPPAAPARPSTSPRPSASSPISSSADADRSDSSRRPVNWRDELQSLKATREPNGNGNGSGVAPAAGRADADEEALRRFGNLAGRSRSGNGGGGSSDTELSEANRPRTRPDWRNQL | – | limited to an inner sphere of the Rubisco matrix | localized to the pyrenoid
